Marks after values point to notes of the source that are not given here.
Experiments:
[1] = BTK FAC plasma stability assay, PBS buffer arm; type: physicochemical; conditions: for Plasma stability (h) PBS: incubation to 24 h
Procedure, shortened: (§1)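 Compound from a 500 µM acetonitrile:water working solution was spiked into K3-EDTA plasma or Dulbecco's PBS and incubated with shaking at 38 °C. Samples taken at 0, 2, 6 and 24 h were precipitated with cold acetonitrile containing glyburide internal standard. Semi-quantitative LC-MS/MS used analyte:internal standard peak area ratios.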

[2] = BTK FAC plasma stability assay, mouse plasma; type: in vitro ADME
Procedure, shortened: as §1

[3] = BTK FAC plasma stability assay, rat plasma; type: in vitro ADME
Procedure, shortened: as §1

[4] = BTK FAC plasma stability assay, dog plasma; type: in vitro ADME
[5] = BTK FAC plasma stability assay, cyno plasma; type: in vitro ADME, cynomolgus monkey
[6] = target: T1, BTK C481S (Homo sapiens, UniProt Q06187, C481S); assay: PD screen in TMD8 BTK C481S mutant tumor-bearing mice, BTK levels and compound concentrations in blood and tumor; type: in vivo, mouse
T1 construct: endogenous in cells; host or cells: TMD8 BTK C481S mutant tumour xenografts in mice
Protocol: All animal studies were conducted in accordance with ethics and procedures covered by permit nos. BS-1975 issued by the Kantonales Veterinäramt Basel-Stadt and in strict adherence to guidelines of the Eidgenössisches Tierschutzgesetz and the Eidgenössische Tierschutzverordnung, Switzerland. All animals had access to food and water ad libitum and were identified with transponders. They were housed in a specific pathogen-free facility with a 12-h light/12-h dark cycle. For PD screen experiments in TMD8 BTK C481S mutant tumor-bearing mice, FAC was injected once. Animals were randomized into groups of 2 and tissue samples collected at day 0, 4, 7 and in some studies day 10 as well. Blood samples were collected and tumors were excised, weighed, frozen in liquid nitrogen and cryogenic dry pulverized with the CryoPrep™ system (model CP-02, Covaris). Concentrations of compounds in blood and tumors were determined by UPLC/MS-MS and BTK levels were analyzed by Meso Scale Discovery.

T1 sequence (Q06187 whole entry C481S): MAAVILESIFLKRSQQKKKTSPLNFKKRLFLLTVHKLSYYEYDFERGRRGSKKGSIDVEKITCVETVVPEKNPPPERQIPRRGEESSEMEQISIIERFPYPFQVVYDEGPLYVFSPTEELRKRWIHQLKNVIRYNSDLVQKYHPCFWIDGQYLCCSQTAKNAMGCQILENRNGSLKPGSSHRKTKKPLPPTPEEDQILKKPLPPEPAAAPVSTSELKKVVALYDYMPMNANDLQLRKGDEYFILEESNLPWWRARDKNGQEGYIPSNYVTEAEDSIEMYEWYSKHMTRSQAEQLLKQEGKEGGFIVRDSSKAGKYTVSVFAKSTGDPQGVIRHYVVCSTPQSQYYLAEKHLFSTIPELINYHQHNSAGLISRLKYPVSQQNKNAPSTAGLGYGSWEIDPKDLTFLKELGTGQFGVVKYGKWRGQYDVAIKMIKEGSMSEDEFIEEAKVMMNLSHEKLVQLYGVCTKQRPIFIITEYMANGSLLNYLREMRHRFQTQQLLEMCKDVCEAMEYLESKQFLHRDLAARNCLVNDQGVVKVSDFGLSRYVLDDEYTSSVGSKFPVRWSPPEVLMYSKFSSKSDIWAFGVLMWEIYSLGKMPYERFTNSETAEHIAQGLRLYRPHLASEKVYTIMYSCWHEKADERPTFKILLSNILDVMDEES

Question: With `CCCCCCCCCCCN(C(=O)CCCCCCCCCCO)C(CCC(=O)NCCOCCOCCOCCOCCOCCOCCOCCOCCOCCOCCOCCOCCC(=O)NCCC(=O)NCCC(=O)OC(C)(C)c1ccc(C(=O)Nc2cc(F)cc(-c3ncnc4[nH]c(-c5ccc(CCN6CCC7(CC6)CCN(C(=O)c6ccc(OC)c(N8CCC(=O)NC8=O)c6)CC7)cc5)cc34)c2C)c(F)c1)C(=O)O` (stereo not shown) [Example A5, 2-(4-((3-(6-(4-(2-(9-(3-(2,4-Dioxotetrahydropyrimidin-1(2H)-yl)-4-methoxybenzoyl)-3,9-diazaspiro[5.5]undecan-3-yl)ethyl)phenyl)-7H-pyrrolo[2,3-d]pyrimidin-4-yl)-5-fluoro-2-methylphenyl)carbamoyl)-3-fluorophenyl)-55-(11-hydroxy-N-undecylundecanamido)-2-methyl-4,8,12,52-tetraoxo-3,15,18,21,24,27,30,33,36,39,42,45,48-tridecaoxa-7,11,51-triazahexapentacontan-56-oic acid] as the compound, how does the “% Release of degrader after 24 h PBS” value [1] read?
Answer: 0.1%

Question: What about the “Plasma stability (h) PBS” value [1] of the same compound?
Answer: >48 h

Question: And the “% Release of degrader after 24 h mouse” value [2]?
Answer: 2%

Question: What about the half-life at 5 µM ([2]; incubation to 24 h) of the same compound?
Answer: > 48 h

Question: And the “% Release of degrader after 24 h rat” value [3]?
Answer: 2.5%

Question: What about the half-life at 5 µM ([3]; incubation to 24 h) of the same compound?
Answer: > 48 h

Question: And the “% Release of degrader after 24 h dog” value [4]?
Answer: 1%

Question: And the half-life at 5 µM ([4]; read-out: Plasma stability (h) dog (converted))?
Answer: > 48 h

Question: What about the “% Release of degrader after 24 h cyno” value [5] of the same compound?
Answer: 0.5%

Question: And the half-life at 5 µM ([5]; monkey, read-out: Plasma stability (h) cyno)?
Answer: > 48 h

Question: What about the “Duration of BTK degradation in mouse ≥90%” value ([6]; i.v., 25 umol/kg) of the same compound?
Answer: 10 days

Question: What about the “Duration of BTK degradation in mouse ≥90%” value ([6]; s.c., 25 umol/kg) of the same compound?
Answer: 10 days

Question: With `CCCCCCCCCCCN(C(=O)CCCCCCCCCC(=O)O)C(CCC(=O)NCCOCCOCCOCCOCCOCCOCCOCCOCCOCCOCCOCCOCCC(=O)N(CC)CC(=O)OC(C)(C)c1ccc(C(=O)Nc2cc(F)cc(-c3ncnc4[nH]c(-c5ccc(CCN6CCC7(CC6)CCN(C(=O)c6ccc(OC)c(N8CCC(=O)NC8=O)c6)CC7)cc5)cc34)c2C)c(F)c1)C(=O)O` (stereo not shown) [Example A13, 50-Carboxy-2-(4-((3-(6-(4-(2-(9-(3-(2,4-dioxotetrahydropyrimidin-1(2H)-yl)-4-methoxybenzoyl)-3,9-diazaspiro[5.5]undecan-3-yl)ethyl)phenyl)-7H-pyrrolo[2,3-d]pyrimidin-4-yl)-5-fluoro-2-methylphenyl)carbamoyl)-3-fluorophenyl)-6-ethyl-2-methyl-4,7,47,52-tetraoxo-51-undecyl-3,10,13,16,19,22,25,28,31,34,37,40,43-tridecaoxa-6,46,51-triazadohexacontan-62-oic acid] as the compound, how does the “% Release of degrader after 24 h PBS” value [1] read?
Answer: 1.4%

Question: What about the “Plasma stability (h) PBS” value [1] of the same compound?
Answer: >48 h

Question: What about the “% Release of degrader after 24 h mouse” value [2] of the same compound?
Answer: 3.7%

Question: What about the “Plasma stability (h) mouse” value ([2]; incubation to 24 h) of the same compound?
Answer: >48 h

Question: And the “% Release of degrader after 24 h rat” value [3]?
Answer: 2%

Question: And the “Plasma stability (h) rat” value ([3]; incubation to 24 h)?
Answer: >48 h

Question: What about the “Plasma stability (h) dog” value [4] of the same compound?
Answer: >48 h

Question: What about the “% Release of degrader after 24 h dog” value [4] of the same compound?
Answer: 2.7%

Question: And the “Plasma stability (h) cyno” value [5]?
Answer: >48 h

Question: And the “% Release of degrader after 24 h cyno” value [5]?
Answer: 2.5%

Question: And the “Duration of BTK degradation in mouse ≥90%” value ([6]; i.v., 50 umol/kg)?
Answer: 7 days

Question: Which results are given for `CCCCCCCCCCCN(C(=O)CCCCCCCCCC(=O)O)C(CCC(=O)NCCOCCOCCOCCOCCOCCOCCOCCOCCOCCOCCOCCOCCC(=O)N1CCC[C@H]1CC(=O)OC(C)(C)c1ccc(C(=O)Nc2cc(F)cc(-c3ncnc4[nH]c(-c5ccc(CCN6CCC7(CC6)CCN(C(=O)c6ccc(OC)c(N8CCC(=O)NC8=O)c6)CC7)cc5)cc34)c2C)c(F)c1)C(=O)O` (stereo partly drawn) [Example A19, 44-Carboxy-1-((S)-2-(2-((2-(4-((3-(6-(4-(2-(9-(3-(2,4-dioxotetrahydropyrimidin-1(2H)-yl)-4-methoxybenzoyl)-3,9-diazaspiro[5.5]undecan-3-yl)ethyl)phenyl)-7H-pyrrolo[2,3-d]pyrimidin-4-yl)-5-fluoro-2-methylphenyl)carbamoyl)-3-fluorophenyl)propan-2-yl)oxy)-2-oxoethyl)pyrrolidin-1-yl)-1,41,46-trioxo-45-undecyl-4,7,10,13,16,19,22,25,28,31,34,37-dodecaoxa-40,45-diazahexapentacontan-56-oic acid]?
Answer: % Release of degrader after 24 h PBS [1]: 0.3%; Plasma stability (h) PBS [1]: >48 h; % Release of degrader after 24 h mouse [2]: 0.5%; Plasma stability (h) mouse ([2]; incubation to 24 h): >48 h; % Release of degrader after 24 h rat [3]: 0.5%; Plasma stability (h) rat ([3]; incubation to 24 h): >48 h; Plasma stability (h) dog [4]: >48 h; % Release of degrader after 24 h dog [4]: 0.3%; Plasma stability (h) cyno [5]: >48 h; % Release of degrader after 24 h cyno [5]: 0.2%; Duration of BTK degradation in mouse ≥90% (days) ([6]; i.v., 50 umol/kg): 7* days

Question: Which “% Release of degrader after 24 h PBS” value [1] does the source give for `CCCCCCCCCCCN(C(=O)CCCCCCCCCC(=O)O)C(CCC(=O)NCCOCCOCCOCCOCCOCCOCCOCCOCCOCCOCCOCCOCCC(=O)NCC(=O)NCN(C(=O)c1ccc(C(C)(C)O)cc1F)c1cc(F)cc(-c2ncnc3[nH]c(-c4ccc(CCN5CCC6(CC5)CCN(C(=O)c5ccc(OC)c(N7CCC(=O)NC7=O)c5)CC6)cc4)cc23)c1C)C(=O)O` (stereo not shown) [Example A36, 51-Carboxy-2-(3-(6-(4-(2-(9-(3-(2,4-dioxotetrahydropyrimidin-1(2H)-yl)-4-methoxybenzoyl)-3,9-diazaspiro[5.5]undecan-3-yl)ethyl)phenyl)-7H-pyrrolo[2,3-d]pyrimidin-4-yl)-5-fluoro-2-methylphenyl)-1-(2-fluoro-4-(2-hydroxypropan-2-yl)phenyl)-1,5,8,48,53-pentaoxo-52-undecyl-11,14,17,20,23,26,29,32,35,38,41,44-dodecaoxa-2,4,7,47,52-pentaazatrihexacontan-63-oic acid] here?
Answer: 0%

Question: And the “Plasma stability (h) PBS” value [1]?
Answer: >48 h

Question: And the “% Release of degrader after 24 h mouse” value [2]?
Answer: 0.7%

Question: What about the “Plasma stability (h) mouse” value ([2]; incubation to 24 h) of the same compound?
Answer: 38.6 h

Question: And the “% Release of degrader after 24 h rat” value [3]?
Answer: 0%

Question: What about the “Plasma stability (h) rat” value ([3]; incubation to 24 h) of the same compound?
Answer: >48 h

Question: And the “Plasma stability (h) dog” value [4]?
Answer: >48 h

Question: What about the “% Release of degrader after 24 h dog” value [4] of the same compound?
Answer: 0%

Question: What about the “Duration of BTK degradation in mouse ≥90%” value ([6]; i.v., 25 umol/kg) of the same compound?
Answer: 10 days

Source: patent US20240216513A1, “FATTY ACID-BIFUNCTIONAL DEGRADER CONJUGATES AND THEIR METHODS OF USE” (Novartis AG, priority 2021, published 2024)
